Measured values reported in US20230192845A1 (BLINK BIOMEDICAL, published 2023).

Molecular target: T1, hCD226-His tagged protein transiently expressed on CHO cells (human, UniProt Q15762 19-336)
T1 construct: whole, on cells; also called DNAM-1
T1 sequence (looked up): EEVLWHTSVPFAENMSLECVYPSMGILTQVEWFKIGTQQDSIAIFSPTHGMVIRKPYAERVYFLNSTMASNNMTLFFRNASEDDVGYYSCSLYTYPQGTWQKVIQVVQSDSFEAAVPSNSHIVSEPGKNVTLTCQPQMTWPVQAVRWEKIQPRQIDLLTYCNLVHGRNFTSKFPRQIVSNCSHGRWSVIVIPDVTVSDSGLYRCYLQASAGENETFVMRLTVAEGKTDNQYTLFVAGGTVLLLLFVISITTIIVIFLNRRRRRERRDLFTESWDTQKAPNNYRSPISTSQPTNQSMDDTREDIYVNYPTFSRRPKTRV
Test: FRET by flow cytometry on transfected CHO cells

B1: hTIGIT-Myc tagged protein transiently expressed on CHO cells (receptor, human, UniProt Q495A1 22-244, looked up)
chain: MMTGTIETTGNISAEKGGSIILQCHLSSTTAQVTQVNWEQQDQLLAICNADLGWHISPSFKDRVAPGPGLGLTLQSLTVNDTGEYFCIYHTYPDGTYTGRIFLEVLESSVAEHGARFQIPLLGAMAATLVVICTAVIVVVALTRKKKALRIHSVEGDLRRKSAGQEEWSPSAPSPPGSCVQAEAAPAGLCGEQRGEDCAELHDYFNVLSYRSLGNCSFFTETG
notes: whole, on cells
Q: Does B1 bind?
A: binds
